Positions count from the first letter of the chain named. In names and notes the source's numbering stands.

Results on two proteins are retold here after PMC11324726, “Structural dynamics of protein-protein association involved in the light-induced transition of Avena sativa LOV2 protein” (Nature Communications, 2024).

Data set [1] concerns the molecule itself. Description: time-resolved X-ray liquidography (TRXL, TR-SAXS/WAXS); in solution; ns laser pump at 450 nm, X-ray probe; 1.5 mM protein in 20 mM Tris pH 7.0, 200 mM NaCl, 293 K; monomers (I2) to dimer (P); kinetic analysis by SVD and KCA, structural analysis aided by MD.
Data set [2] concerns the molecule itself. Kind of data set: SEC; light state; monomer and dimer fractions by elution volume; conditions in Supplementary Note 3 and Supplementary Methods (not shown).

B1: AsLOV2 (residue 404-546) I427V mutant (domain or fragment, Avena sativa, UniProt O49003 404-546, looked up)
chain: LATTLERIEKNFVITDPRLPDNPVIFASDSFLQLTEYSREEILGRNCRFLQGPETDRATVRKIRDAIDNQTEVTVQLINYTKSGKKFWNLFHLQPMRDQKGDVQYFIGVQLDGTEHVRDAAEREGVMLIKKTAENIDEAAKEL
notes: Avena sativa phototropin 1, residues 404-546, with I427V (faster photocycle); Carries FMN; Cys-FMN photoadduct in the light state; also called AsLOV2 I427V
With B1, the “stoichiometry N” value in data set [1] is 2.

B2: Avena sativa phototropin 1 LOV2 domain with A'α and Jα helices (residue 404-546), wild type (domain or fragment, UniProt O49003 404-546, looked up)
chain: B1 chain with V24I
notes: Avena sativa phototropin 1 (AsPhot1), A'α helix (404-412) + LOV2 core (413-520) + Jα helix (521-546), residues 404-546; Carries FMN as chromophore; in the light state a Cys-FMN photoadduct is formed; also called AsLOV2; AsLOV2 WT
As for B2, the “stoichiometry N” value in data set [2] is 2.

As a reminder, the stoichiometry N is the number of molecules, sites or subunits per partner or assembly.
